Assay results: the supplement of paper PMC5998384

Legend:
[1] = system: HeLa Kyoto; experiment: solubility in G1/S (NP-40 vs SDS abundance) (log2 ratio); higher = more soluble; conditions: cell cycle stage: G1/S
[2] = system: HeLa Kyoto; experiment: solubility change mitosis vs G1/S (difference of NP-40 vs SDS log2 ratios) (log2 ratio difference); higher = more soluble in mitosis
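Wherever solubility change mitosis vs G1/S (difference of NP-40 vs SDS log2 ratios) is given: synchronized HeLa Kyoto cells (double thymidine block for G1/S, nocodazole release for mitosis), protein amounts in NP-40 versus SDS lysates quantified by mass spectrometry, three biological replicates.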
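Wherever solubility in G1/S (NP-40 vs SDS abundance) is given: HeLa Kyoto cells arrested at G1/S by double thymidine block, proteins quantified by TMT10plex mass spectrometry in mild NP-40 versus SDS extracts, three biological replicates.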

Sequence	solubility in G1/S (log2) [1]	solubility change mitosis (log2) [2]
MRSLRKKREKPRPEQWKGLPGPPRAPEPEDVAVPGGVDLLTLPQLCFPGGVCVATEPKEDCVHFLVLTDVCGNRTYGVVAQYYRPLHDEYCFYNGKTHRECPGCFVPFAVCVVSRFPYYNSLKDCLSCLLALLKPCKDFEVDSHIKDFAAKLSLIPSPPPGPLHLVFNMKSLQIVLPARADPESPILDLDLHLPLLCFRPEKVLQILTCILTEQRIVFFSSDWALLTLVTECFMAYLYPLQWQHPFVPILSDQMLDFVMAPTSFLMGCHLDHFEEVSKEADGLVLINIDHGSITYSKSTDDNVDIPDVPLLAAQTFIQRVQSLQLHHELHAAHLLSSTDLKEGRAHRRSWQQKLNCQIQQTTLQLLVSIFRDVKNHLNYEHRVFNSEEFLKTRAPGDHQFYKQVLDTYMFHSFLKARLNRRMDAFAQMDLDTQSEEDRINGMLLSPRRPTVEKRASRKSSHLHVTHRRMVVSMPNLQDIAMPELAPRNSSLRLTDTAGCRGSSAVLNVTPKSPYTFKIPEIHFPLESKCVQAYHAHFVSMLSEAMCFLAPDNSLLLARYLYLRGLVYLMQGQLLNALLDFQNLYKTDIRIFPTDLVKRTVESMSAPEWEGAEQAPELMRLISEILDKPHEASKLDDHVKKFKLPKKHMQLGDFMKRVQESGIVKDASIIHRLFEALTVGQEKQIDPETFKDFYNCWKETEAEAQEVSLPWLVMEHLDKNECVCKLSSSVKTNLGVGKIAMTQKRLFLLTEGRPGYLEISTFRNIEEVRRTTTTFLLRRIPTLKIRVASKKEVFEANLKTECDLWHLMVKEMWAGKKLADDHKDPHYVQQALTNVLLMDAVVGTLQSPGAIYAASKLSYFDKMSNEMPMTLPETTLETLKHKINPSAGEAFPQAVDVLLYTPGHLDPAEKVEDAHPKLWCALSEGKVTVFNASSWTIHQHSFKVGTAKVNCMVMADQNQVWVGSEDSVIYIINVHSMSCNKQLTAHCSSVTDLIVQDGQEAPSNVYSCSMDGMVLVWNVSTLQVTSRFQLPRGGLTSIRLHGGRLWCCTGNSIMVMKMNGSLHQELKIEENFKDTSTSFLAFQLLPEEEQLWAACAGRSEVYIWSLKDLAQPPQRVPLEDCSEINCMIRVKKQVWVGSRGLGQGTPKGKIYVIDAERKTVEKELVAHMDTVRTLCSAEDRYVLSGSGREEGKVAIWKGE [DENND3]	-0.339	-0.197
MSANNSPPSAQKSVLPTAIPAVLPAASPCSSPKTGLSARLSNGSFSAPSLTNSRGSVHTVSFLLQIGLTRESVTIEAQELSLSAVKDLVCSIVYQKFPECGFFGMYDKILLFRHDMNSENILQLITSADEIHEGDLVEVVLSALATVEDFQIRPHTLYVHSYKAPTFCDYCGEMLWGLVRQGLKCEGCGLNYHKRCAFKIPNNCSGVRKRRLSNVSLPGPGLSVPRPLQPEYVALPSEESHVHQEPSKRIPSWSGRPIWMEKMVMCRVKVPHTFAVHSYTRPTICQYCKRLLKGLFRQGMQCKDCKFNCHKRCASKVPRDCLGEVTFNGEPSSLGTDTDIPMDIDNNDINSDSSRGLDDTEEPSPPEDKMFFLDPSDLDVERDEEAVKTISPSTSNNIPLMRVVQSIKHTKRKSSTMVKEGWMVHYTSRDNLRKRHYWRLDSKCLTLFQNESGSKYYKEIPLSEILRISSPRDFTNISQGSNPHCFEIITDTMVYFVGENNGDSSHNPVLAATGVGLDVAQSWEKAIRQALMPVTPQASVCTSPGQGKDHKDLSTSISVSNCQIQENVDISTVYQIFADEVLGSGQFGIVYGGKHRKTGRDVAIKVIDKMRFPTKQESQLRNEVAILQNLHHPGIVNLECMFETPERVFVVMEKLHGDMLEMILSSEKSRLPERITKFMVTQILVALRNLHFKNIVHCDLKPENVLLASAEPFPQVKLCDFGFARIIGEKSFRRSVVGTPAYLAPEVLRSKGYNRSLDMWSVGVIIYVSLSGTFPFNEDEDINDQIQNAAFMYPPNPWREISGEAIDLINNLLQVKMRKRYSVDKSLSHPWLQDYQTWLDLREFETRIGERYITHESDDARWEIHAYTHNLVYPKHFIMAPNPDDMEEDP [PRKD3]	-0.25	-0.119
MSEIRKDTLKAILLELECHFTWNLLKEDIDLFEVEDTIGQQLEFLTTKSRLALYNLLAYVKHLKGQNKDALECLEQAEEIIQQEHSDKEEVRSLVTWGNYAWVYYHMDQLEEAQKYTGKIGNVCKKLSSPSNYKLECPETDCEKGWALLKFGGKYYQKAKAAFEKALEVEPDNPEFNIGYAITVYRLDDSDREGSVKSFSLGPLRKAVTLNPDNSYIKVFLALKLQDVHAEAEGEKYIEEILDQISSQPYVLRYAAKFYRRKNSWNKALELLKKALEVTPTSSFLHHQMGLCYRAQMIQIKKATHNRPKGKDKLKVDELISSAIFHFKAAMERDSMFAFAYTDLANMYAEGGQYSNAEDIFRKALRLENITDDHKHQIHYHYGRFQEFHRKSENTAIHHYLEALKVKDRSPLRTKLTSALKKLSTKRLCHNALDVQSLSALGFVYKLEGEKRQAAEYYEKAQKIDPENAEFLTALCELRLSI [IFIT5]	0.129	0.0621
MSELKDCPLQFHDFKSVDHLKVCPRYTAVLARSEDDGIGIEELDTLQLELETLLSSASRRLRVLEAETQILTDWQDKKGDRRFLKLGRDHELGAPPKHGKPKKQKLEGKAGHGPGPGPGRPKSKNLQPKIQEYEFTDDPIDVPRIPKNDAPNRFWASVEPYCADITSEEVRTLEELLKPPEDEAEHYKIPPLGKHYSQRWAQEDLLEEQKDGARAAAVADKKKGLMGPLTELDTKDVDALLKKSEAQHEQPEDGCPFGALTQRLLQALVEENIISPMEDSPIPDMSGKESGADGASTSPRNQNKPFSVPHTKSLESRIKEELIAQGLLESEDRPAEDSEDEVLAELRKRQAELKALSAHNRTKKHDLLRLAKEEVSRQELRQRVRMADNEVMDAFRKIMAARQKKRTPTKKEKDQAWKTLKERESILKLLDG [TADA3]	0.646	0.286
MSFKREGDDWSQLNVLKKRRVGDLLASYIPEDEALMLRDGRFACAICPHRPVLDTLAMLTAHRAGKKHLSSLQLFYGKKQPGKERKQNPKHQNELRREETKAEAPLLTQTRLITQSALHRAPHYNSCCRRKYRPEAPGPSVSLSPMPPSEVKLQSGKISREPEPAAGPQAEESATVSAPAPMSPTRRRALDHYLTLRSSGWIPDGRGRWVKDENVEFDSDEEEPPDLPLD [SCNM1]	0.0519	0.462
MSFRGGGRGGFNRGGGGGGFNRGGSSNHFRGGGGGGGGGNFRGGGRGGFGRGGGRGGFNKGQDQGPPERVVLLGEFLHPCEDDIVCKCTTDENKVPYFNAPVYLENKEQIGKVDEIFGQLRDFYFSVKLSENMKASSFKKLQKFYIDPYKLLPLQRFLPRPPGEKGPPRGGGRGGRGGGRGGGGRGGGRGGGFRGGRGGGGGGFRGGRGGGFRGRGH [GAR1]	-1.36	1.41
MSGPCGEKPVLEASPTMSLWEFEDSHSRQGTPRPGQELAAEEASALELQMKVDFFRKLGYSSTEIHSVLQKLGVQADTNTVLGELVKHGTATERERQTSPDPCPQLPLVPRGGGTPKAPNLEPPLPEEEKEGSDLRPVVIDGSNVAMSHGNKEVFSCRGILLAVNWFLERGHTDITVFVPSWRKEQPRPDVPITDQHILRELEKKKILVFTPSRRVGGKRVVCYDDRFIVKLAYESDGIVVSNDTYRDLQGERQEWKRFIEERLLMYSFVNDKFMPPDDPLGRHGPSLDNFLRKKPLTLEHRKQPCPYGRKCTYGIKCRFFHPERPSCPQRSVADELRANALLSPPRAPSKDKNGRRPSPSSQSSSLLTESEQCSLDGKKLGAQASPGSRQEGLTQTYAPSGRSLAPSGGSGSSFGPTDWLPQTLDSLPYVSQDCLDSGIGSLESQMSELWGVRGGGPGEPGPPRAPYTGYSPYGSELPATAAFSAFGRAMGAGHFSVPADYPPAPPAFPPREYWSEPYPLPPPTSVLQEPPVQSPGAGRSPWGRAGSLAKEQASVYTKLCGVFPPHLVEAVMGRFPQLLDPQQLAAEILSYKSQHPSE [ZC3H12A]	0.15	-0.0716
MSGSDGGLEEEPELSITLTLRMLMHGKEVGSIIGKKGETVKRIREQSSARITISEGSCPERITTITGSTAAVFHAVSMIAFKLDEDLCAAPANGGNVSRPPVTLRLVIPASQCGSLIGKAGTKIKEIRETTGAQVQVAGDLLPNSTERAVTVSGVPDAIILCVRQICAVILESPPKGATIPYHPSLSLGTVLLSANQGFSVQGQYGAVTPAEVTKLQQLSSHAVPFATPSVVPGLDPGTQTSSQEFLVPNDLIGCVIGRQGSKISEIRQMSGAHIKIGNQAEGAGERHVTITGSPVSIALAQYLITACLETAKSTSGGTPSSAPADLPAPFSPPLTALPTAPPGLLGTPYAISLSNFIGLKPMPFLALPPASPGPPPGLAAYTAKMAAANGSKKAERQKFSPY [PCBP4]	0.0231	0.0329
